IntAct's records for PubMed 25910212

B1: EF-hand domain-containing protein 1 (Homo sapiens), Q5JVL4 (parent)
chain: MVSNPVHGLPFLPGTSFKDSTKTAFHRSQTLSYRNGYAIVRRPTVGIGGDRLQFNQLSQAELDELASKAPVLTYGQPKQAPPADFIPAHVAFDKKVLKFDAYFQEDVPMSTEEQYRIRQVNIYYYLEDDSMSVIEPVVENSGILQGKLIKRQRLAKNDRGDHYHWKDLNRGINITIYGKTFRVVDCDQFTQVFLESQGIELNPPEKMALDPYTELRKQPLRKYVTPSDFDQLKQFLTFDKQVLRFYAIWDDTDSMYGECRTYIIHYYLMDDTVEIREVHERNDGRDPFPLLMNRQRVPKVLVENAKNFPQCVLEISDQEVLEWYTAKDFIVGKSLTILGRTFFIYDCDPFTRRYYKEKFGITDLPRIDVSKREPPPVKQELPPYNGFGLVEDSAQNCFALIPKAPKKDVIKMLVNDNKVLRYLAVLESPIPEDKDRRFVFSYFLATDMISIFEPPVRNSGIIGGKYLGRTKVVKPYSTVDNPVYYGPSDFFIGAVIEVFGHRFIILDTDEYVLKYMESNAAQYSPEALASIQNHVRKREAPAPEAESKQTEKDPGVQELEALIDTIQKQLKDHSCKDNIREAFQIYDKEASGYVDRDMFFKICESLNVPVDDSLVKELIRMCSHGEGKINYYNFVRAFSN
B2: Estrogen receptor beta (Homo sapiens), Q92731-3 (parent)
chain: MDIKNSPSSLNSPSSYNCSQSILPLEHGSIYIPSSYVDSHHEYPAMTFYSPAVMNYSIPSNVTNLEGGPGRQTTSPNVLWPTPGHLSPLVVHRQLSHLYAEPQKSPWCEARSLEHTLPVNRETLKRKVSGNRCASPVTGPGSKRDAHFCAVCSDYASGYHYGVWSCEGCKAFFKRSIQGHNDYICPATNQCTIDKNRRKSCQACRLRKCYEVGMVKCGSRRERCGYRLVRRQRSADEQLHCAGKAKRSGGHAPRVRELLLDALSPEQLVLTLLEAEPPHVLISRPSAPFTEASMMMSLTKLADKELVHMISWAKKIPGMRGNA
partner: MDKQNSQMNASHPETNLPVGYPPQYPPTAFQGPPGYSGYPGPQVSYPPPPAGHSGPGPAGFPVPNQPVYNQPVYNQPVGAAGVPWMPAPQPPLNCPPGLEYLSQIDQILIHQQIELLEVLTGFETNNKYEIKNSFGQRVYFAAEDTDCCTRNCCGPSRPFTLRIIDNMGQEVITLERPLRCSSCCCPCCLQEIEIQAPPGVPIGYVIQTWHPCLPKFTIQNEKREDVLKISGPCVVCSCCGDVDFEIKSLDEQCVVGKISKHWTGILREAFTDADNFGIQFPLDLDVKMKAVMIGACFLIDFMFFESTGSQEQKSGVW

Variants of: B1
Details: with ikzf3_human IKZF3, Q9UKT9
Sequence of ikzf3_human IKZF3, Q9UKT9 (Q9UKT9 whole entry): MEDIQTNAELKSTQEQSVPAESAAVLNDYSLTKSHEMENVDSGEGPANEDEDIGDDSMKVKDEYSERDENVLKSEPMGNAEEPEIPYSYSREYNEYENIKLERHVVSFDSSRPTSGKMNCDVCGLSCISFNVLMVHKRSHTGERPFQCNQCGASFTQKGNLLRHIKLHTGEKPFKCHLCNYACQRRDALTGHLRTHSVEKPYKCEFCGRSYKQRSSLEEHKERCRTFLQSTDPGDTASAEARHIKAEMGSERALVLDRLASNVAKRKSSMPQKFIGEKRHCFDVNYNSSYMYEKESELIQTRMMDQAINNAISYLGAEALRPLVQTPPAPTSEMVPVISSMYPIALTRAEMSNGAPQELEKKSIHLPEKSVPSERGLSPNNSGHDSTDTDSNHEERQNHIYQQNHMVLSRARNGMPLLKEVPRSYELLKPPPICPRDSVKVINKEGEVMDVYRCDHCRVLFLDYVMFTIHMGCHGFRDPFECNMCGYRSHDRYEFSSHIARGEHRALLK

effect of a mutation on the interaction	Variant
with no effect	R159W
with no effect	T508R

Variants of: B1
Details: with kctd4_human KCTD4, Q8WVF5
Sequence of kctd4_human KCTD4, Q8WVF5 (Q8WVF5 whole entry): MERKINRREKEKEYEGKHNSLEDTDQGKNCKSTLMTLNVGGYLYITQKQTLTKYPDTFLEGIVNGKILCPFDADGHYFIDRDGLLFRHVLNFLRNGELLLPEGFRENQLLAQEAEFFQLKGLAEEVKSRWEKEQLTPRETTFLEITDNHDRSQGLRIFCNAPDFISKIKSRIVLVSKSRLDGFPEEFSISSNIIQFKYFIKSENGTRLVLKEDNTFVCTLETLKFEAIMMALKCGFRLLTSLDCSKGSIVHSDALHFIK

effect of a mutation on the interaction	Variant
with no effect	R159W
with no effect	T508R

Variants of: B1
Details: with rim3a_human RIMBP3, Q9UFD9
Sequence of rim3a_human RIMBP3, Q9UFD9 (Q9UFD9 whole entry): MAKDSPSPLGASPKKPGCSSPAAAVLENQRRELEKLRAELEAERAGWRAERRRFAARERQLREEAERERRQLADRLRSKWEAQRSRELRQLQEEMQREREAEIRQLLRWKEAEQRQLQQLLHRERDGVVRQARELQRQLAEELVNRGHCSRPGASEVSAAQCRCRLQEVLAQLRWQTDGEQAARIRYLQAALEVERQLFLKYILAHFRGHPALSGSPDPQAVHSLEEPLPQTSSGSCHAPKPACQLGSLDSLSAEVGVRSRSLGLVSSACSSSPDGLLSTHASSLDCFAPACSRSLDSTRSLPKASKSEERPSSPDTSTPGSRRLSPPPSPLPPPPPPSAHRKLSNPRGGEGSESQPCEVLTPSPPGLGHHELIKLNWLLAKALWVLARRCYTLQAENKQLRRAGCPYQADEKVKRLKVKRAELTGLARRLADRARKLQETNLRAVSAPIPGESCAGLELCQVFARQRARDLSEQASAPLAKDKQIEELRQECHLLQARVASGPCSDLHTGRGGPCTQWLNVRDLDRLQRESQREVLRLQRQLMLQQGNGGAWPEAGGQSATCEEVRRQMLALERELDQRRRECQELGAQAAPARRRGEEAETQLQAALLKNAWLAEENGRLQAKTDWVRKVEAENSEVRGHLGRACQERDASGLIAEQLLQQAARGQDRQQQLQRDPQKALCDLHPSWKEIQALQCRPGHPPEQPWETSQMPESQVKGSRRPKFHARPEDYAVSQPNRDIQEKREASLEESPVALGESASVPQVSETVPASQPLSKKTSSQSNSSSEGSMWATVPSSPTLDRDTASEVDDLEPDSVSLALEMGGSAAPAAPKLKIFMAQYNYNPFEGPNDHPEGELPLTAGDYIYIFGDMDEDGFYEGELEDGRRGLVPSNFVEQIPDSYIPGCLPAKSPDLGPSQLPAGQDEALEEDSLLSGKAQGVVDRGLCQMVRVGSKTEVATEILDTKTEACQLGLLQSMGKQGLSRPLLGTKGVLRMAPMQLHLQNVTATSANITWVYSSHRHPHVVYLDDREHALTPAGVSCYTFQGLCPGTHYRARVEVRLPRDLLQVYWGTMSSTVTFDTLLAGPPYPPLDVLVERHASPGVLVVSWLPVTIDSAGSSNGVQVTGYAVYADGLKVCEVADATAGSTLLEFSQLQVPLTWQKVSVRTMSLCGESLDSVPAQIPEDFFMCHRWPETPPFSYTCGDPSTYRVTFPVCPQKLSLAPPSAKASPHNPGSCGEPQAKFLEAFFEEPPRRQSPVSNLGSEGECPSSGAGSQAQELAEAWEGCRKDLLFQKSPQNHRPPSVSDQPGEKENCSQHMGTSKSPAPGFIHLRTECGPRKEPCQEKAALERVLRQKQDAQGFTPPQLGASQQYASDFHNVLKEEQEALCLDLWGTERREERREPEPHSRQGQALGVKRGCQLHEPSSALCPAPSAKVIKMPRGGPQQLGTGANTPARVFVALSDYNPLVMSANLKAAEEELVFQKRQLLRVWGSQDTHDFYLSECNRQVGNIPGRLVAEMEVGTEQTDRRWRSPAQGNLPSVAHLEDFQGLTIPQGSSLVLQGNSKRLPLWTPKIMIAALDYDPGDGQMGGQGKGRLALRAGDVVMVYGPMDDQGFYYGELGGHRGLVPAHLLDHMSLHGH

effect of a mutation on the interaction	Variant
with no effect	R159W
with no effect	T508R

Variants of: B1
Details: with trip6_human TRIP6, Q15654
Sequence of trip6_human TRIP6, Q15654 (Q15654 whole entry): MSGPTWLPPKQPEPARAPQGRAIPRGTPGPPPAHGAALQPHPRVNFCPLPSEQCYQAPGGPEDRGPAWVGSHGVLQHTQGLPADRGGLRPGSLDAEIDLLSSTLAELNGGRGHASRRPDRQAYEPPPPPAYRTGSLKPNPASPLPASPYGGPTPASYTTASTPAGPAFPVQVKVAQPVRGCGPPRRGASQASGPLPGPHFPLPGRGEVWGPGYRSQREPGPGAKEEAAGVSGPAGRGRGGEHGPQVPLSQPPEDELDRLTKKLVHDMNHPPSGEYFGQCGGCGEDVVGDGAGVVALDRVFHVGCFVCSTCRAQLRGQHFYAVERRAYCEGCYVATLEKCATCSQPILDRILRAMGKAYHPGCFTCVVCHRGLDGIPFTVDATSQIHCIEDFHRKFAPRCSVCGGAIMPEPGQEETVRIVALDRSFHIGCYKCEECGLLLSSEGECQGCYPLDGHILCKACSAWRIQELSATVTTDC

effect of a mutation on the interaction	Variant
with no effect	R159W
with no effect	T508R

Variants of: B1
Details: with KRT15, P19012
Sequence of KRT15, P19012 (P19012 whole entry): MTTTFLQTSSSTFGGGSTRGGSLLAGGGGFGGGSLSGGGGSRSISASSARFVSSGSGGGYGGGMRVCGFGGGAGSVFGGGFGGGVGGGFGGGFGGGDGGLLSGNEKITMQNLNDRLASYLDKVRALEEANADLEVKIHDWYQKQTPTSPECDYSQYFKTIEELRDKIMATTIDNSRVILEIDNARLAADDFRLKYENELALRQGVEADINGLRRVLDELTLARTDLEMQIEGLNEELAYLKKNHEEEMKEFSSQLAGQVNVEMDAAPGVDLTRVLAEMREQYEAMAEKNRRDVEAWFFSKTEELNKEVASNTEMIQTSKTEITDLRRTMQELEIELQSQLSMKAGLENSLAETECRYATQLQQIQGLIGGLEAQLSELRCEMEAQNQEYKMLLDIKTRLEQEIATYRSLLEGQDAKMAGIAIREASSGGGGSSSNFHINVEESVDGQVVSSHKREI

effect of a mutation on the interaction	Variant
with no effect	R159W
with no effect	T508R

Variants of: B1
Details: with TCF4, P15884-3
Sequence of TCF4, P15884-3 (P15884 other isoform, or with tags, fused parts or gaps): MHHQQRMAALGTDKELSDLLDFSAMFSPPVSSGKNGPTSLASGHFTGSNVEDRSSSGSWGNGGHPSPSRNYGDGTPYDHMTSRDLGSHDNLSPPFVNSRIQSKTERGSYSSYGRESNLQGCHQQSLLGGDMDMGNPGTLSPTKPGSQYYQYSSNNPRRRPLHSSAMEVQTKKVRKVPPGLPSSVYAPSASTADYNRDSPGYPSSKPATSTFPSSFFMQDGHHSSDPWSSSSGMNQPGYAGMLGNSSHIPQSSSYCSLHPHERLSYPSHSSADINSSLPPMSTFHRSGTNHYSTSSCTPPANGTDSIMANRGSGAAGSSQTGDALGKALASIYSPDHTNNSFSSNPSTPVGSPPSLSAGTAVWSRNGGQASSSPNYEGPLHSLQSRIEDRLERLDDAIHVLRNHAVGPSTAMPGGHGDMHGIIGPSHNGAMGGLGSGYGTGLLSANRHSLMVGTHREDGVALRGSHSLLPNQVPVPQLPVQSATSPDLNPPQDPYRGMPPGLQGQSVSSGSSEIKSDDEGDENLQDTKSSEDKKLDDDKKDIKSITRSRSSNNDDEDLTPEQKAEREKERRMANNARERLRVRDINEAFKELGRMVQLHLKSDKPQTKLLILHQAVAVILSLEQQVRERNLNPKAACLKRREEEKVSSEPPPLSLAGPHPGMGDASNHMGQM

effect of a mutation on the interaction	Variant
with no effect	R159W
disrupting interaction strength	T508R

Variants of: B1
Details: with goga2_human GOLGA2, Q08379
Sequence of goga2_human GOLGA2, Q08379 (Q08379 whole entry): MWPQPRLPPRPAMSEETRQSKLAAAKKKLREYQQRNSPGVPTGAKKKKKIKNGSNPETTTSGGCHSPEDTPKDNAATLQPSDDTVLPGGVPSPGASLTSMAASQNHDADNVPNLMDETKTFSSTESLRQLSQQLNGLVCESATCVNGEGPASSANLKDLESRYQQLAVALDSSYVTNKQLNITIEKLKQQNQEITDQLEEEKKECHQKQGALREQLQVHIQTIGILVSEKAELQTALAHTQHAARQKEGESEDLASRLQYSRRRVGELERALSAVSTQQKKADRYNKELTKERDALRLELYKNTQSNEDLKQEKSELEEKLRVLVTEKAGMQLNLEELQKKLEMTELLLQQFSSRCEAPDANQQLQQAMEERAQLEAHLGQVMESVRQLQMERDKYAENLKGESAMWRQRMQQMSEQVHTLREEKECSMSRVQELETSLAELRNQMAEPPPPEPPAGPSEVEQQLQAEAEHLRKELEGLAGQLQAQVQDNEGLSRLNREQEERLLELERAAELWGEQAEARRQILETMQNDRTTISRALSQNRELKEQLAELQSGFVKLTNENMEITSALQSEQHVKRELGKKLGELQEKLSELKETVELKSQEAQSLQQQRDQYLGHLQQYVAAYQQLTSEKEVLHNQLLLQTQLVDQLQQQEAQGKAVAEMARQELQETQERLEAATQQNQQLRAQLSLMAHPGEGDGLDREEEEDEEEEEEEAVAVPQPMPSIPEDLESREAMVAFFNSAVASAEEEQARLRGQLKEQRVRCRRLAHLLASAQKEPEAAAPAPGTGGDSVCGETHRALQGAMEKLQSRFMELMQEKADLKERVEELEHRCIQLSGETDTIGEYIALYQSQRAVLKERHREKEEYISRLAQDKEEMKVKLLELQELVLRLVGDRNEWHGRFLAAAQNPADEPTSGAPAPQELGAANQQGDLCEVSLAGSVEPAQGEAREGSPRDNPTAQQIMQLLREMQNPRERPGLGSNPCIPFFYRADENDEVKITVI

effect of a mutation on the interaction	Variant
with no effect	R159W
with no effect	T508R

Variants of: B2
Details: with pls1_human PLSCR1, O15162

effect of a mutation on the interaction	Variant
with no effect	MDIKNSPSSLNSPSSYNCSQSILPLEHGSIYIPSSYVDSHHEYPAMTFYSPAVMNYSIPSNVTNLEGGPGRQTTSPNVLWPTPGHLSPLVVHRQLSHLYAEPQKSPWCEARSLEHTLPVNRETLKRKVSGNRCASPVTGPGSKRDAHFCAVCSDYASGYHYGVWSCEGCKAFFKRSIQGHNDYICPATNQCTIDKNRRKSCQACRLRKCYEVGMVKCGSRRERCGYRLVRRQRSADEQLHCAGKAKRSGGHAPRVRELLLDALSPEQLVLTLLEAEPPHVLISRPSAPLTEASMMMSLTKLADKELVHMISWAKKIPGMRGNA [F289L]
